Measurements reported in paper PMC10575581 (Science Advances, 2023).

Biological target: the molecule itself
Experiment: cryo-EM structure; Der^Δ-p97^Δ complex from Sf9 with ATP·BeFx added through the whole purification; closed class 3.65 Å and open (state U) class 4.51 Å

B1: human Derlin-1 Δ215–239, C-terminal twin strep tag (Sf9) (natural protein, UniProt Q9BUN8-1 1-251, looked up)
chain: MSDIGDWFRSIPAITRYWFAATVAVPLVGKLGLISPAYLFLWPEAFLYRFQIWRPITATFYFPVGPGTGFLYLVNLYFLYQYSTRLETGAFDGRPADYLFMLLFNWICIVITGLAMDMQLLMIPLIMSVLYVWAQLNRDMIVSFWFGTRFKACYLPWVILGFNYIIGGSVINELIGNLVGHLYFFLMFRYPMDLGGRNFLSTPQFLYRWLPSRRHNWGQGFRLGDQ
notes: Derlin-1, human, cDNA NCBI NM_024295.6, whole protein with residues 215 to 239 (loop between TM6 and the SHP box) deleted; a PreScission Protease cleavage site stands before the C-terminal twin strep tag; Cleavage of the tag is not described; also called Der^Δ; truncated Derlin-1; source: Sf9, baculovirus (pFastBac-Dual), coexpressed with p97 Δ1–20, co-purified (Strep-Tactin, SEC in GDN); not …
  stoichiometry N: 4
